Experimental data as given in patent KR20130126543A.

Key:
Fc = assay: mono phage ELISA; Fc coated 100 ng/well; anti-M13-HRP
IL-6R-Fc 항원 (human) [1] = biological target: IL-6R-Fc 항원 (human) (UniProt P08887); assay: mono phage ELISA; ratio of the IL-6R full signal to the a-myc signal
IL-6R-Fc 항원 (human) [2] = biological target: IL-6R-Fc 항원 (human) (UniProt P08887); assay: mono phage ELISA; antigen coated 100 ng/well; anti-M13-HRP

Chain of UniProt P08887 (P08887 20-365 limits assumed): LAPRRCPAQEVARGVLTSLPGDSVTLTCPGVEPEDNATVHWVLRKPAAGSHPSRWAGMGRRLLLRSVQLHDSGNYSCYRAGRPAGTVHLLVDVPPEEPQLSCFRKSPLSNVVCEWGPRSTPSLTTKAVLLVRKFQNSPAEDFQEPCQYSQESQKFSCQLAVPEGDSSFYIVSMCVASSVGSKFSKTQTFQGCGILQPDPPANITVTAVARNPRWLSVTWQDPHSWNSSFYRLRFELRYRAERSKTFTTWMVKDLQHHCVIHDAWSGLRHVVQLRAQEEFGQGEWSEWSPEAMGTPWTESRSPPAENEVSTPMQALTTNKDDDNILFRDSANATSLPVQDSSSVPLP

B1: 모노 파아지 클론 A7 (scFv, V domains shown)
VH: QMQLVESGGGLVQPGTSLRLSCAASGFKFEDYAMHWVRQAPGKGLEWVSGVSWNSGTIAYVDSVKGRFTISRDNAKNSLYLQMNSLRAEDTAVYYCARDFTYFYESSGYYAFDLWGQGTMVTVSS
VL: SQLVLTQPPSVSGAPGQRVTISCTGTNSNIGAGYDVHWYQQVPGTTPKLLIYGNTNRPSGVPDRFSGSKSGTSASLAITGLQAEDGGDYYCQSFDSSLTGSVFGTGTKVTVL
Q: Which results are given for B1?
A: OD 490 nm (Fc) (Fc): 0.0421 OD490; Ratio (IL-6R-Fc 항원 (human) [1]): 31.1; OD 490 nm (IL-6R full) (IL-6R-Fc 항원 (human) [2]): 2.48 OD490

B2: 모노 파아지 클론 F2 (scFv, V domains shown)
VH: QVQLVESGAEVKKPGASVKVSCKASGYTFTNYYMHWVRQAPGQGLEWMGIINPSGGNTGYAQKFQGRVTMTRDMSTSTAYMELSSLRSEDTAVYYCARGLPWGENGLDVWGQGTTVTVSS
VL: SQLVLTQPSSVSGAPGQTVTISCTGSSSNIGAGYDVHWYQQLPGTAPKVLIYGDSDRPSGVPDRFSGSKSATSASLAITGLQAEDEADYYCQSYDSSLSAYVFGTGTKVTVL
Q: B2 was tested. Which OD 490 nm (Fc) (Fc) did it give?
A: 0.0405 OD490

Q: What about the Ratio (IL-6R-Fc 항원 (human) [1]) of the same binder?
A: 9.96

Q: What about the OD 490 nm (IL-6R full) (IL-6R-Fc 항원 (human) [2]) of the same binder?
A: 2.86 OD490

B3: 모노 파아지 클론 B10 (scFv, V domains shown)
VH: QVQLVESGGGLVQPGGSLRLSCAASGFIFDDYAMFWVRQVPGKGLEWVAGINWNGNGIGYGDSVRGRFIISRDNARNSLDLQMNSLRAEDTAVYYCARPSLYGGNSEFDLWGQGTLVTVSS
VL: SQLVLTQPPSVSGAPGQTVTISCTGPTIGAGYDVHWYQQLPGAAPKLLIYGNLNRPSGVPDRFSGSKSGTSASLAITDLQAEDEADYYCHTYDSSLSGSWVFGGGTKLTVL
Q: Which OD 490 nm (Fc) (Fc) does the source give for B3 here?
A: 0.0406 OD490

Q: What about the Ratio (IL-6R-Fc 항원 (human) [1]) of the same binder?
A: 18.6

Q: What about the OD 490 nm (IL-6R full) (IL-6R-Fc 항원 (human) [2]) of the same binder?
A: 2.1 OD490

B4: 모노 파아지 클론 D2 (scFv, V domains shown)
VH: QVQLVESGAEVKKPGSSVKVSCKGSGDTFPNYAINWVRQAPGQGPEWMGRIIPMLGTSDYAEKFQGRVTITADKSTNTAYMGLNSLRSEDTAVYYCVKGPRYYGTDSYYLEKWGQGTMVTVSS
VL: B3 VL
Q: What does the source list for B4?
A: OD 490 nm (Fc) (Fc): 0.0415 OD490; Ratio (IL-6R-Fc 항원 (human) [1]): 7.71; OD 490 nm (IL-6R full) (IL-6R-Fc 항원 (human) [2]): 2.34 OD490
